Results on 2 substances are retold here after publication PMC8124314.

pKd: −log10 of the molar value. Like-named read-outs stand apart in the source and are kept apart here.

Experiment [1] deals with E-cadherin (Homo sapiens) (UniProt P12830). The note with it: cited from earlier work.
Experiment [2] concerns the target MBP-fused epithelial cadherin (MBP-eCAD). The experiment is described as follows: SPR.
For experiment [3] the target is unchanged. Put plainly: SPR. This is another data set of the same source. On the technique in general: Surface plasmon resonance follows binding to a sensor surface in real time, without labels.

The pKd is the negative decadic logarithm of the Kd, by convention in mol/L. E-cadherin (from UniProt P12830): the pKd in experiment [1] is 4.00.

In general, koff refers to a measure of how fast the partners let go of each other. Read a low koff as a long-lived complex. What is called kon is a measure of how fast the partners come together. In experiment [2], “MBP-fused epithelial cadherin (MBP-eCAD) (domain or fragment)” had a pKd of 6.71, a koff of 0.000696 s⁻¹ and a kon of 4650 M⁻¹ s⁻¹. The same substance gave a pKd in experiment [3] of 3.71.
